Measured values taken from article PMC6595482 (Molecular microbiology, 2018).

Molecular target: E. coli RNA polymerase (E. coli) (UniProt P0A7Z4)
Sequence (P0A7Z4 whole entry, looked up): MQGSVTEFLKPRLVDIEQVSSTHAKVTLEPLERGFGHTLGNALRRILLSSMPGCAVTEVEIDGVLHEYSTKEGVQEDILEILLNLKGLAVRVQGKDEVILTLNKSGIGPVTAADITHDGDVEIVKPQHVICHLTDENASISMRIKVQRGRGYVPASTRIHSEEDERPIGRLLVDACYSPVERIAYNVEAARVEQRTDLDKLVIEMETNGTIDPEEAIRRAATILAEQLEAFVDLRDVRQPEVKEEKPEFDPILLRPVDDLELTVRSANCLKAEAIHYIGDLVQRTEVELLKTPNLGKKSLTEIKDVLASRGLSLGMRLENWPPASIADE

B1: Escherichia coli RfaH (natural protein)
chain: MQSWYLLYCKRGQLQRAQEHLERQAVNCLAPMITLEKIVRGKRTAVSEPLFPNYLFVEFDPEVIHTTTINATRGVSHFVRFGASPAIVPSAVIHQLSVYKPKDIVDPATPYPGDKVIITEGAFEGFQAIFTEPDGEARSMLLLNLINKEIKHSVKNTEFRKL
- Exo III footprinting of the upstream boundary of the ops TEC (100 nM RfaH): 7 nt
